Source: patent US20220363757A1

B1: Fab fragment of antibody 15011 (Fab, not shown: a dimerising Fc or GST)
heavy: EVQLLESGGGLVQPGGSLRLSCAASGFDFRSYAMMWVRQAPGKGLEWVGGINGEVGGSNTYYAPAVKGRATISRDNSKNTLYLQMNSLRAEDTAVYYCVKGAGACGICNDDIDAWGQGTLVTVSS
light: SYELTQDPAVSVALGQTVRITCSGAGSYAGSYYYGWHQQKPGQAPVTVIYDNDKRPSNIPDRFSGSSSGNTASLTITGAQAEDEADYYCGSTNDNDDGGLFGSGTKVTVLGQPKANPTVTLFPPSSEELQANKATLVCLISDFYPGAVTVAWKADGSPVKAGVETTKPSKQSNNKYAASSYLSLTPEQWKSHRSYSCQVTHEGSTVEKTVAPTECS
B2: Fab fragment of antibody 15431 (Fab, not shown: a dimerising Fc or GST)
heavy: QVQLQQSGPGLVKPSQTLSLTCAISGDSVSSNSAAWNWIRQSPSRGLEWLGRTYYRSKWYNDYAVSVKSRITINPDTSKNQFSLQLNSVTPEDTAVYYCARDDDWNDFDYWGQGTLVTVSS
light: not shown
B3: Fab fragment of antibody 15532 (Fab, not shown: a dimerising Fc or GST)
heavy: QVQLQQWGAGLLRPSETLSLTCAVYGESFSGYYWNWIRQPPGKGLEWIGEINHSGSTNYNPSLKSRVTISVDTSKTQFSLKLSSVTAADTAVYYCARGWDLLDWNDYWNEYWGQGTLVTVSS
light: not shown

The binders below were run against cynomolgus LAG-3 ECD human IgG1 Fc fusion (cynomolgus; human), P18627 (assay: SPR, Fab over captured LAG-3 ECD-Fc).
cynomolgus LAG-3 ECD human IgG1 Fc fusion (cynomolgus; human), P18627, sequence (P18627 other isoform, or with tags, fused parts or gaps, form in doubt): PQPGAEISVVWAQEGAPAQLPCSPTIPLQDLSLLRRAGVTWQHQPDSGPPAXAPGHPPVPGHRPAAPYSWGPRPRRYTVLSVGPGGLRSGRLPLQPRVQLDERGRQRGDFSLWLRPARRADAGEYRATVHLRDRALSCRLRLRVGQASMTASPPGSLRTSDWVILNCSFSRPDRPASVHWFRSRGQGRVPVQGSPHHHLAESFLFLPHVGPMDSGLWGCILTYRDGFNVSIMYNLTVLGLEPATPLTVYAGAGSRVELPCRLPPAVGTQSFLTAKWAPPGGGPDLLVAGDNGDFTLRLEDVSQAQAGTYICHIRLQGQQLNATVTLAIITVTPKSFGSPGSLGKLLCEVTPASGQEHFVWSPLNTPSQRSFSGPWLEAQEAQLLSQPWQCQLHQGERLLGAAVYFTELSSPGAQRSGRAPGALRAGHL

Row | Kd [nM] | koff [s⁻¹] | kon [M⁻¹ s⁻¹] | Binder
1 | 35 | 0.0025 | 70000 | B1
2 | 120 | 0.0068 | 59000 | B2
3 | 68 | 0.0048 | 71000 | B3
